Measured values taken from PMC11187071, “The binding mechanism of an anti-multiple myeloma antibody to the human GPRC5D homodimer” (Nature Communications, 2024).
Substitutions are numbered along the chain they refer to. Each block holds one binder with its values, some of them ahead of it.

Columns and labels:
[1] = biological target: the molecule itself; test: cryo-EM structure; GPRC5D and scFv150_18 co-expressed in Hi5 insect cells, complex purified by TALON IMAC and Superdex 200 in LMNG/CHS, 20 mM HEPES pH 7.4, 100 mM NaCl; C2 symmetry, 3.34 Å
[2] = biological target: T1, WT GPRC5D expressed on HEK293T cells (Homo sapiens, UniProt Q9NZD1); test: flow cytometry on cells; HEK293T cells transiently transfected with WT or mutated GPRC5D, incubated with purified IgG150_18 at different concentrations for 60 min, detected with goat anti-human IgG (Fc specific)-FITC at 4 °C; % of total, normalized to expression level; details: one partner purified
T1 construct: human GPRC5D, UniProt Q9NZD1; also called GPRC5D-WT; source: HEK293T, transiently transfected, on cells

B1: human GPRC5D (residues 1-298) with N-terminal BRIL fusion, cryo-EM construct (receptor, UniProt Q9NZD1 1-298, looked up)
chain: MYKDCIESTGDYFLLCDAEGPWGIILESLAILGIVVTILLLLAFLFLMRKIQDCSQWNVLPTQLLFLLSVLGLFGLAFAFIIELNQQTAPVRYFLFGVLFALCFSCLLAHASNLVKLVRGCVSFSWTTILCIAIGCSLLQIIIATEYVTLIMTRGMMFVNMTPCQLNVDFVVLLVYVLFLMALTFFVSKATFCGPCENWKQHGRLIFITVLFSIIIWVVWISMLLRGNPQFQRQPQWDDPVVCIALVTNAWVFLLLYIVPELCILYRSCRQECPLQGNACPVTAYQHSFQVENQELSR
notes: human GPRC5D, UniProt Q9NZD1, residues 1-298; Order at the N-terminus as printed: haemagglutinin signal peptide, Flag tag, BRIL, then GPRC5D 1-298, HRV 3C site, 10x His; Membranes were treated with iodoacetamide before solubilisation; also called hGPRC5D; GPRC5D homodimer; not shown: BRIL (thermostabilized E. coli apocytochrome b562RIL), N-terminal, kept; 10x His, C-terminal, kept
stoichiometry N [1]: 2

binding result [2]: binds
B2: IgG150-18 with a single mutation at Y228 (HCDR2) (antibody, V domains shown)
VH: QVQLVESGGGLVHPGGSLRLSCAASGFTFRSHSMNWVRQAPGKGLEWVSSISSDSTYTAYADSVKGRFTISRDNAKNSLYLQMNSLRAEDTAVYYCARSGGQWKYYDYWGQGTLVTVSS
VL: SSELTQDPAVSVALGQTVRITCQGDSLRSYYASWYQQKPGQAPVLVIYGKNNRPSGIPDRFSGSSSGNTASLTITGAQAEDEADYYCNSRDSSGNPPVVFGGGTKLTVL
notes: as the heavy chain variable domain of m3 (from scFv m2, PDB 8YZK) with a single mutation at Y228 (HCDR2; number as printed for the scFv); human IgG heavy chain constant region; as the light chain of m3; Residue number counts as in the scFv structure, not on the IgG heavy chain; also called Y228 mutant antibody; source: HEK-293F, transfected, purified (protein A, Superdex 200)

EC50 [2]: ~4.6 nM
B3: IgG150-18 (scFv150-18 cloned into human IgG format) (antibody, V domains shown)
VH: B2 VH with A59Y
VL: B2 VL
notes: heavy chain variable domain as in the scFv m2 (PDB 8YZK); human IgG heavy chain constant region; light chain variable domain as in the scFv m2 (PDB 8YZK); human light chain constant region; also called antibody150_18; scFv150_18 in its IgG format; source: HEK-293F, transfected, purified (protein A, Superdex 200)
